From the DeepSol protein solubility set

Assay: soluble on expression in E. coli; label from the status in PepcDB or PDB records

Sequence | soluble on expression in E. coli
HDVIFHIRAKGKNQKLLLSAHPSYSRVHITAQAYENPSEPPMFCMLLRKHIEGGFIEKIEQAGLDRIMIFHIKSRNEIGDETVRKLYVEIMGRHSNIILTDAAENVIIDGLKHLSPSMNSYRTVLPGQDYKLPPAQDKISPLEASEDDILRHLSFQEGRLDKQIVDHFSGVSPLFAKEAVHRAGLANKVTLPKALLALFAEVKEHRFIPNITTVNGKEYFYLLELTHLKGEARRFDSLSELLDRFYFGKAERDRVKQQAQDLERFVVNERKKNANKIKKLEKTLEYSENAKEFQLYGELLTANLYMLKKGD | not soluble
HFESIQAVNKTLNKKGLPPIIVHFIEETLQDYELIGMLNNGYIKAIVLDSHKAKLWLNAMDDIKAHKKVPLRKNGNIAWVMRQNSPQLKAVVNKFIQKSRSGTLLGNVIYSKYIDNTNWLNKALNPKKIAQLEKLSA | not soluble
HGSSTVDELTAAFTGGAATGEGGLTLTAPEIAENGNTVPIEVKAPGAVAIMLLAAGNPEPAVATFNFGPAAADQRAATRIRLAQTQDVIALAKMADGSVVKAQTTVKVTIGGCGG | soluble
HHHHHHHHHHMPPKGWRKDAQGNYPTTSYIKEQENITIQDLLFPKSTIVNLAREVPQQSGKKLLINKDASLALQRGATVFVNHLLLFAREIAKSQDKKSCSVDDVLSALDHIGHSALKGPVRDKLDEYQAAVEQRKKEKLDSGEVDADGDIDMGEDKENVPVEKVKEHDEIEEQGDALQDVEESSEKKQKTESQDVETRVQNLEQT | not soluble
HHHHHHMAGMAMDLGGYLTRIGLDGRPRPDLGTLHAIVAAHNRSIPFENLDPLLGIPVADLSAEALFAKLVDRRRGGYCYEHNGLLGYVLEELGFEVERLSGRVVWMRADDAPLPAQTHNVLSVAVPGADGRYLVDVGFGGQTLTSPIRLEAGPVQQTRHEPYRLTRHGDDHTLAAQVRGEWQPLYTFTTEPRPRIDLEVGSWYVSTHPGSHFVTGLTVAVVTDDARYNLRGRNLAVHRSGATEHIRFDSAAQVLDAIVNRFGIDLGDLAGRDVQARVAEVLDT | soluble
HIWLFFIEEGKNHYRVEFRSNGINVREVALKYGGGGHIQASGAVLKSKRDIIRVVQD | not soluble
HMNAEINPLHAYFKLPNTVSLVAGSSEGETPLNAFDGALLNAGIGNVALIRISSIMPPEAEIVPLPKLPMGALVPTAYGYIISDVPGETISAAISVAIPKDKSLCGLIMEYEGKCSKKEAEKTVREMAKIGFEMRGWELDRIESIAVEHTVEKLGCAFAAAALWYK | soluble
HMSICTSEEWQGLMQFTLPVRLCKEIELFHFDIGPFENMWPGIFVYMVHRSCGTSCFELEKLCRFIMSVKKNYRRVPYHNWKHAVTVAHCMYAILQNNHTLFTDLERKGLLIACLCHDLDHRGFSNSYLQKFDHPLAALYSTSTMEQHHFSQTVSILQLEGHNIFSTLSSSEYEQVLEIIRKAIIATDLALYFGNRKQLEEMYQTGSLNLNNQSHRDRVIGLMMTACDLCSVTKLWPVTKLTANDIYAEFWAEGDEMKKLGIQPIPMMDRDKKDEVPQGQLGFYNAVAIPCYTTLTQILPPTEPLLKACRDNLSQWEKVIRGEETATWISSPSVAQKAAASED | soluble
HQITRTVPAKRGTIYDRNGVPIAEDATSYNVYAVIDKKYKSATGKILYVEDAQFNKVAEVFHKYLDMEESYVREQLSQPNLKQVSFGSKGNGITYANMMAIKKELETAEVKGIDFTTSPNRSYPNGQFASSFIGLAQLHENEDGSKSLLGTSGMESSLNSILAGTDGIITYEKDRVGNIVPGTELVSQQTVDGKDVYTTLSSPLQSFMETQMDAFLEKVKGKYMTATLVSAKTGEILATTQRPTFNADTKEGITEDFVWRDILYQSNYEPGSAMKVMTLASSIDNNTFPSGEYFNSSELKIADATTRDWDVNEGLTTGGMMTFLQGFAHSSNVGMSLLEQKMGDATWLDYLKRFKFGVPTRFGLTDEYAGQLPADNIVSIAQSSFGQGISVTQTQMLRAFTAIANDGVMLEPKFISAIYDTNNQSVRKSQKEIVGNPVSKEAASTTRNHMILVGTDPLYGTMYNHYTGKPIITVPGQNVAVKSGTAQIADEKNGGYLVGSTNYIFSAVTMNPAENPDFILYVTVQQPEHYSGIQLGEFATPILERASAMKESLNLQSPAKNLDKVTTESSYAMPSIKDISPGELAEALRRNIVQPIVVGTGTKIKETSVEEGTNLAPNQQVLLLSDKVEEIPDMYGWKKETAETFAKWLDIELEFEGSGSVVQKQDVRTNTAIKNIKKIKLTLGD | soluble
HSLLPVDDAINGLSEEQRQLRQTMAKFLQEHLAPKAQEIDRSNEFKNLREFWKQLGNLGVLGITAPVQYGGSGLGYLEHVLVMEEISRASGAVGLSYGAHSNLCINQLVRNGNEAQKEKYLPKLISGEYIGALAMSEPNAGSDVVSMKLKAEKKGNHYILNGNKFWITNGPDADVLIVYAKTDLAAVPASRGITAFIVEKGMPGFSTSKKLDKLGMRGSNTCELIFEDCKIPAANILGHENKGVYVLMSGLDLERLVLAGGPLGLMQAVLDHTIPYLHVREAFGQKIGHFQLMQGKMADMYTRLMACRQYVYNVAKACDEGHCTAKDCAGVILYSAECATQVALDGIQCFGGNGYINDFPMGRFLRDAKLYEIGAGTSEVRRLVIGRAFNADFH | soluble
HSQRVIRELDEHGFWSAMIPQWEHIRGRMPRESVHIHTIDVHSMVVTANCATQSIRVARPDLLFLAALFHDIGKGYGRRHEEVGAEFVVDMATTLRLNPSDTQIVETLVAQHTIIPHIVGRYNPTSTEAIDKLLDAVNYDLLTLDLLEALVEADAQGTAPGVWSAVLRYGTRELCAQARQR | not soluble
ICNKYKNINVNMKKNNDDTWTDLVKNSSDINKGVLLPPRRKNLFLKIDESDICKYKRDPKLFKDFIYSSAISEVERLKKVYGEAKTKVVHAMKYSFADIGSIIKGDDMMENNSSDKIGKILGDGVGQNEKRKKWWDMNKYHIWESMLSGYKHAYGNISENDRKMLDIPNNDDEHQFLRWFQEWTENFCTKRNELYENMVTACNSAKCNTSNGSVDKKECTEACKNYSNFILIKKKEYQSLNSQYDMNYKETKAEKKESPEYFKDKCNGECSCLSEYFKDETRWKNPYETLDDTEVKNNCMCK | soluble
IDSGLSPSVLMASNSGRRSAPPLNLTGLPGTEKLNEKEKELCQVVRLVPGAYLEYKSALLNECHKQGGLRLAQARALIKIDVNKTRKIYDFLIREGYITKA | soluble
IFFMEAMSPQQETLGGQPGRSSSLTGVSRLAGGSCTKKKMKTLAERRRSAPSLILDKALQKRPTTRDSPSASVDTCTFLSSLVCSNRTLLIDGRAELKRGLQRQERHLFLFNDLFVVAKIKYNNNFKIKNKIKLTDMWTASCVDEVGEGNTNAMKSFVLGWPTVNFVATFSSPEQKDKWLSLLQRYINLEKEKDYPKSIPLKIFAKDIGNCAYSKTITVMNSDTANEVINMSLPMLGITGSERDYQLWVNSGKEEAPYPLIGHEYPYGIKMSHLRDSALLTPGSKDSTTPFNLQEPFLMEQLPREMQCQFILKPSRLAAAQQLSDSGHKTFKRRRSIINWAFWRGSSTHLDNLPSSPTSPMPGQLFGISLPNICENDNLPKPVLDMLFFLNQKGPLTKGIFRQSANVKSCRELKEKLNSGVEVHLDCESIFVIASVLKDFLRNIPGSIFSSDLYDHWVSVMDQGNDEEKINTVQRLLDQLPRANVVLLRYLFGVLHNIEQHSSSNQMTAFNLAVCVAPSILWPPASSSPELENEFTKKVSLLIQFLIENCLRIFGEEITSLFREVSVRCDTRENASDISCFQLNDSSYDSLENELNEDVDAPCSDLVKKLGQGSRSMDSVLTLSDYDLDQPEVEGLLTLSDFDLAHSKDEDVQMKRPLESKPVNILVYTKIPLRDHARAPSAMCTPSYLSTAAANAAKSLRRHRRCSEPSIDYLDSKLSYLREFYQKKLRKSSCDAILSQKDEDYLKQNQPLQEEGKTCFKQSLVTGTDVSKKNATTQNTKKKSLSGSEGNHVKLFPKSKPVAISVASYSPMSSQDHSKNQPFDVNTSGYSPPHTADALKGPRTHRRCSEPNIEDQNRKLTYLRGIYSKKQHKTSCEAGLLHGEEDYLKRHKSLQMEGQKLINQSLVMGIEVGKSSATNQNTEKVLPPRLNLCPRTSYSSLSSPGTSPSGSSVSSQDSAFSQISEHSVFTPTETSSPIDCTFQAQRKREDLSPDFSNASHVSGMPGPSSGQACSRPAYTKKDTMEWHSQMHSVTLHPSTWLRNGVASLKNWSLKKKAKAARPEEEKIASPKGPLEPPPHASGVPEANSLQEEQKDLPLRAAEGLSPVQSAQRCSSSPFQDSERHCSSPFSLVESRLKLCMKSHEEIEPGSQSSSGSLPWERASASSWTLEDATSPDSGPTVVCDIEDRYLTKDI | soluble
IFSEINIDPTKRVLLYAPTWKTNSSDDDIFPINEQLLKHYNVIYKGHVESKNDLVPEGVIIPPNNIETQDLIIISDVVLTDYSSIIFDALTVDKKGCLYTPNHSQYVEERGVYQDVMDTLKPIWYTDAELLINDLITDSIPQLNNKYTNKNNQSFEYISKLISN | not soluble
IGEFSYSLNGNLSYAHNRILSRTQADNTLPWQSVLGSSVGELWGLKALGLYQSEEEIANSPQVSWNTPRVGDIKYADINGDGKIDSNDRIKISRGIRPEMMFALMADANYKGFDLSVQFQGAALCDKMLQYSWQDLNGATDMTPMTRPWYANWDNAPLYLVENSWRPDHTNAEYPRLTVSSVSHSNNAQQSDFWKRNGAYLRLKNVTLGYTLPKAWTNKMGLSNIRVYANGTNLLTFTDFKYIDPESTNVATGYYPQQRTFSFGIDVRF | not soluble
IGQVNLQLRANFTYQTTDIIDKDEAANELWYKMDKGFQLNQSRGLIALGLFKDQDEIDRSPKQTSNRPILPGDIKYKDVNGDGVINDDDIVPLGYREVPGLQYGVGLSANWRNWNLSVLFQGTGKCDFFIGGNGPHAFRSERYGNILQAMVDGNRWIPKEISGTTATENPNADWPLLTYGNNDNNNRKSTFWLYERKYLRLRNVEVSYDFPQTWTRKFFVSNLRLGFVGQNLLTWAPFKMWDPEGTREDGSNYPINKTFSCYLQISF | not soluble
ILRTKAQFVAMNEASLMQINHEWLQGTQSKQVTSQGETWQIDKRAESTISPNVQRIEIQVSLFDTQQNKVEAGITNLVFFNYPQKENAS | not soluble
INKINLNKPIIENKNNVDVSIKRYNNFVDIARLSIQKHFEHLSNDQKDSHVNNMEYMQKFVQGLQENRNISLSKYQENKAVMDLKYHLQKVYANYLSQEEN | soluble
IPEEGGDELGAMARTLSLFRESAIEKKKLEDEAERQRRTIAAALEVISDGFVLYDSEDRILVANSKYCEIFPSHKPNTLRGRSFREIVEQNLEMGQVDLEGKSPQEWVDERVRLHRDPAGLVDEKRFGDKWVRISKRKIPD | not soluble
IRQTYEQSCGASSLATLLNILDDQKKFDELELLKIMSGQELYTDMVSFADLNDAVKKLGFQSNSYQINRENLDKLVNIPMLVKIEDDPRFPHFVIIINHKGNYLQVLDPSHGEYISSKSQFFSIWDRYNKGGYALIVAP | not soluble
ISEFGSCPPGQFRCSEPPGAHGECYPQDWLCDGHPDCDDGRDEWGCG | soluble
